Test results reported in article PMC1885668.

Tests used:
[1] = molecular target: T1, TREX2BD (human, UniProt Q9BQ50 1-236, R163A;R165A;R167A); assay: SPR
T1 sequence: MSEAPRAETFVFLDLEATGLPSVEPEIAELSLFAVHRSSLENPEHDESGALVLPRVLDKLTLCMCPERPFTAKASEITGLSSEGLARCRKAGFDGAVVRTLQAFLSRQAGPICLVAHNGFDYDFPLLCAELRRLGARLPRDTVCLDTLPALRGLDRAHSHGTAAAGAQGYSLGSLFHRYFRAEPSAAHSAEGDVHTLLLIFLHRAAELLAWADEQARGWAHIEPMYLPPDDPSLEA

[2] = molecular target: T2, TREX2DD (human, UniProt Q9BQ50 1-236, E29A;K59A;D94A;R107A;E191A); assay: SPR
T2 sequence: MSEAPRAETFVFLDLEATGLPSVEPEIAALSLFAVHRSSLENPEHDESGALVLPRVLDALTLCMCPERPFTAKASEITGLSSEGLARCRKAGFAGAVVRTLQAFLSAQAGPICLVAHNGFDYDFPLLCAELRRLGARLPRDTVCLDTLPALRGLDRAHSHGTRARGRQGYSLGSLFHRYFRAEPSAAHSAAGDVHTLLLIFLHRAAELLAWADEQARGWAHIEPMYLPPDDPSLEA

## GTATGAGCTGCAGTTCCTCAGCAT (ssDNA) [Biotin-mTX1-322 (24-mer)]
[1]
  binding result: no binding
[2]
  binding result: no binding
